Reference: patent US20240270861A1 (DRAGONFLY THERAPEUTICS, published 2024)

What was measured:
[1] = target: T1, hBAFF-R-hFc-His fusion protein (human, UniProt Q96RJ3 1-78, biotinylated where used as yeast display probe); assay: yeast display flow cytometry after challenge: 100 pM hBAFFR-Fc biotin for 1hr at RT, then 1 mM nonbiotinylated hBAFFR-Fc (as printed on the sheet)
T1 construct: also called hBAFFR-Fc; biotinylated hBAFF-R-hFc-His

cynomolgus CD16 = target: T2, cynomolgus CD16 (cynomolgus monkey, UniProt Q8SPW2 17-208); assay: SPR, kinetics fit
T2 construct: also called cyno CD16; FcγRIII (cynomolgus)

human CD16a V158 = target: T3, human CD16a V158 (human, UniProt P08637 17-208); assay: SPR, qualitative (Table 40 not given)
T3 construct: Recombinant receptor in SPR; in the cytotoxicity assays expressed on KHYG-1-CD16aV cells; also called hCD16aV; hCD16a V158
T3 sequence (P08637 17-208 F176V limits assumed): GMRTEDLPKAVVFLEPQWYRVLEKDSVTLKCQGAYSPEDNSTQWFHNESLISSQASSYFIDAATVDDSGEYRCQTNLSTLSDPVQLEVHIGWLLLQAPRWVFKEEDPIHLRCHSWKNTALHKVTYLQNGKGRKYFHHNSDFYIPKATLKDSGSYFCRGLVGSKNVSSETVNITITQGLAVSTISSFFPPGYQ

T2 sequence (Q8SPW2 17-208 limits assumed): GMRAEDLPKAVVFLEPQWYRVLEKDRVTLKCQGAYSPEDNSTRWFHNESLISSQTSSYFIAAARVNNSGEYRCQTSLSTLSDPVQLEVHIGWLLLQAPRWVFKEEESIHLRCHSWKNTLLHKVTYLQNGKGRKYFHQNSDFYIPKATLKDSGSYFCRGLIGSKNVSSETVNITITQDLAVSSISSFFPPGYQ

| Binder | Iana (drawn gate) [1] | further results |
| --- | --- | --- |
| AB1080scFv displayed on yeast (scFv, V domains shown, scFv on yeast) VH: EVQLVQSGGGVVQPGRSLRLSCAASGFTFSSYGMHWVRQAPGKCLEWVAVIWYDASNKYYGDSVKGRFTISRDNSKNTLYLQMNSLRDEDTAVYYCARRFTHLRGWYIEDYGLDVWGQGTTVTVSS VL: not shown | 23.4 % (unit not printed) |  |
| AB1084scFv displayed on yeast (scFv, V domains shown, scFv on yeast) VH: EVQLVQSGGGVVQPGRSLRLSCAASGFTFSMYGMHWVRQAPGKCLEWVAVIWYDASNKYYGDSVKGRFTISRDNSKNTLYLQMNSLRDEDTAVYYCARRFTRLRGWYIEDYGLDVWGQGTTVTVSS VL: not shown | 7.4 % (unit not printed) |  |
| AB1081scFv displayed on yeast (scFv, V domains shown, scFv on yeast) VH: EVQLVQSGGGVVQPGRSLRLSCAASGFAFSSYGMHWVRQAPGKCLEWVAVIWYDESNKYYGDSVKGRFTISRDNSRNTLYLQMNSLRDEDTAVYYCARRFTNLRGWIIEDYGLDVWGQGTTVTVSS VL: not shown | 27.2 % (unit not printed) |  |
| AB1424/AB1612 F3′ TriNKET (bispecific antibody, human IgG1, kappa, Chain S anti-BAFF-R scFv-CH2-CH3, Chain H and Chain L anti-NKG2D A49MI Fab; also called AB1612-002) not shown heavy: EVQLVESGGGLVKPGGSLRLSCAASGFTFSSYSMNWVRQAPGKGLEWVSSISSSSSYIYYADSVKGRFTISRDNAKNSLYLQMNSLRAEDTAVYYCARGAPIGAAAGWFDPWGQGTLVTVSSASTKGPSVFPLAPSSKSTSGGTAALGCLVKDYFPEPVTVSWNSGALTSGVHTFPAVLQSSGLYSLSSVVTVPSSSLGTQTYICNVNHKPSNTKVDKKVEPKSCDKTHTCPPCPAPELLGGPSVFLFPPKPKDTLMISRTPEVTCVVVDVSHEDPEVKFNWYVDGVEVHNAKTKPREEQYNSTYRVVSVLTVLHQDWLNGKEYKCKVSNKALPAPIEKTISKAKGQPREPQVCTLPPSRDELTENQVSLTCLVKGFYPSDIAVEWESNGQPENNYKTTPPVLDSDGSFFLYSWLTVDKSRWQQGNVFSCSVMHEALHNHYTQKSLSLSPG light: DIQMTQSPSSVSASVGDRVTITCRASQGISSWLAWYQQKPGKAPKLLIYAASSLQSGVPSRFSGSGSGTDFTLTISSLQPEDFATYYCQQGVSFPRTFGGGTKVEIKRTVAAPSVFIFPPSDEQLKSGTASVVCLLNNFYPREAKVQWKVDNALQSGNSQESVTEQDSKDSTYSLSSTLTLSKADYEKHKVYACEVTHQGLSSPVTKSFNRGEC |  | Kd (cynomolgus CD16): 232 nM |
| AB1424/AB1612 F3′ TriNKET FcγRsi (bispecific antibody, Positions are EU numbers, not positions on the entries; also called AB1424/AB1612 F3′ TriNKET-Fc-si; AB1424/AB1612 F3′ TriNKET-Fc silenced) not shown heavy: EVQLVESGGGLVKPGGSLRLSCAASGFTFSSYSMNWVRQAPGKGLEWVSSISSSSSYIYYADSVKGRFTISRDNAKNSLYLQMNSLRAEDTAVYYCARGAPIGAAAGWFDPWGQGTLVTVSSASTKGPSVFPLAPSSKSTSGGTAALGCLVKDYFPEPVTVSWNSGALTSGVHTFPAVLQSSGLYSLSSVVTVPSSSLGTQTYICNVNHKPSNTKVDKKVEPKSCDKTHTCPPCPAPEAAGGPSVFLFPPKPKDTLMISRTPEVTCVVVDVSHEDPEVKFNWYVDGVEVHNAKTKPREEQYNSTYRVVSVLTVLHQDWLNGKEYKCKVSNKALGAPIEKTISKAKGQPREPQVCTLPPSRDELTENQVSLTCLVKGFYPSDIAVEWESNGQPENNYKTTPPVLDSDGSFFLYSWLTVDKSRWQQGNVFSCSVMHEALHNHYTQKSLSLSPG light: DIQMTQSPSSVSASVGDRVTITCRASQGISSWLAWYQQKPGKAPKLLIYAASSLQSGVPSRFSGSGSGTDFTLTISSLQPEDFATYYCQQGVSFPRTFGGGTKVEIKRTVAAPSVFIFPPSDEQLKSGTASVVCLLNNFYPREAKVQWKVDNALQSGNSQESVTEQDSKDSTYSLSSTLTLSKADYEKHKVYACEVTHQGLSSPVTKSFNRGEC |  | binding result (human CD16a V158): no binding |
